{"source": "paper PMC8860611", "binders": {"B1": {"name": "CA15-2 (1-104) (structured_RNA)", "RNA": "GGAAGAAGAGAAUCAUACACAAGAUCGACGUACCUCAGGGUGGUGUAUGACUGAGGUGAAGACUGUGAACCAUGGCAUGCGGGCAUAAGGUAGGUAAGUCCAUA"}}, "molecular_target": "native CA lattice tubes (HIV-1, UniProt P12493 133-363)", "assay": "filter binding", "data": [{"binder": "B1", "values": [{"measurement": "binding result", "result": "binds"}]}]}
